Measurements from article PMC10786891, “Massively parallel profiling of RNA-targeting CRISPR-Cas13d”.

T1: EsCas13d, nuclease-dead (Eubacterium siraeum, UniProt B0MS50, R295A;H300A;R849A;H854A)
T1 sequence: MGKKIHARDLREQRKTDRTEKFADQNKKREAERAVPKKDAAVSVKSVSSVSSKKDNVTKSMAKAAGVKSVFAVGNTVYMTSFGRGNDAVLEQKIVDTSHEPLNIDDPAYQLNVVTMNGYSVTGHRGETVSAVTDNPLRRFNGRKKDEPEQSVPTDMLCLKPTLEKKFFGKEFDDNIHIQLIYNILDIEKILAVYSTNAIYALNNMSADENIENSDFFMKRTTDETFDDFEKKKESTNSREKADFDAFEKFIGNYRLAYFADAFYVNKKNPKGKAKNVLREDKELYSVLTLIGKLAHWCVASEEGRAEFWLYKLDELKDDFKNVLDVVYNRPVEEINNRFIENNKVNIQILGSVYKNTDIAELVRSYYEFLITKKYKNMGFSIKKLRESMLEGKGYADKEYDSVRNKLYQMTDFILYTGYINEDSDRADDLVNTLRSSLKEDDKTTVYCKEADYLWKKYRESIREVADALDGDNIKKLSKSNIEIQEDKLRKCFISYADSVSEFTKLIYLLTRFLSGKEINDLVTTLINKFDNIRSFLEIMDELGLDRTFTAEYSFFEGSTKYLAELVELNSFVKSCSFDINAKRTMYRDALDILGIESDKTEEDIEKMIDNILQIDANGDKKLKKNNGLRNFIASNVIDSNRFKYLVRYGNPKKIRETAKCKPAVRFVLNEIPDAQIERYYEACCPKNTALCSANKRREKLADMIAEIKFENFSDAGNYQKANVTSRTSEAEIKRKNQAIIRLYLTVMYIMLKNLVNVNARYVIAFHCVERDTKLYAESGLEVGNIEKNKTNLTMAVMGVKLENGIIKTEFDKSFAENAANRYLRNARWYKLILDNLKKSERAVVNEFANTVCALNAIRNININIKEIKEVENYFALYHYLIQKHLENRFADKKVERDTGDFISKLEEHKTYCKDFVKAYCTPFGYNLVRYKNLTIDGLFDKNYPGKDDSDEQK

B1: target 2 MT 5'PFS GUG 3'PFS UGC (mixed)
RNA 1: CACCCGUGCAAAAUUGCAGGGGUCUAAAACCUUCUCCAAAUUGUUUCAUCCU
RNA 2: GGGAAUGGAUCCACAUCUACGAAUUCGUGAGGAUGAAACAAUUUGGAGAAGUGCAGAUCGGAAGAGCACACGU
B2: target 2 MT 5'PFS AGA 3'PFS UUA (mixed)
RNA 1: CACCCGUGCAAAAUUGCAGGGGUCUAAAACCUUCUCCAAAUUGUUUCAUCCU
RNA 2: GGGAAUGGAUCCACAUCUACGAAUUCAGAAGGAUGAAACAAUUUGGAGAAGUUAAGAUCGGAAGAGCACACGU
B3: target 2 MT 5'PFS AGA 3'PFS UUG (mixed)
RNA 1: CACCCGUGCAAAAUUGCAGGGGUCUAAAACCUUCUCCAAAUUGUUUCAUCCU
RNA 2: GGGAAUGGAUCCACAUCUACGAAUUCAGAAGGAUGAAACAAUUUGGAGAAGUUGAGAUCGGAAGAGCACACGU
B4: target 2 MT 5'PFS UUA 3'PFS UAC (mixed)
RNA 1: CACCCGUGCAAAAUUGCAGGGGUCUAAAACCUUCUCCAAAUUGUUUCAUCCU
RNA 2: GGGAAUGGAUCCACAUCUACGAAUUCUUAAGGAUGAAACAAUUUGGAGAAGUACAGAUCGGAAGAGCACACGU
B5: target 2 MT 5'PFS UUA 3'PFS CUG (mixed)
RNA 1: CACCCGUGCAAAAUUGCAGGGGUCUAAAACCUUCUCCAAAUUGUUUCAUCCU
RNA 2: GGGAAUGGAUCCACAUCUACGAAUUCUUAAGGAUGAAACAAUUUGGAGAAGCUGAGAUCGGAAGAGCACACGU
B6: target 2 MT 5'PFS UUA 3'PFS CUU (mixed)
RNA 1: CACCCGUGCAAAAUUGCAGGGGUCUAAAACCUUCUCCAAAUUGUUUCAUCCU
RNA 2: GGGAAUGGAUCCACAUCUACGAAUUCUUAAGGAUGAAACAAUUUGGAGAAGCUUAGAUCGGAAGAGCACACGU
B7: target 2 MT 5'PFS AAU 3'PFS AUU (mixed)
RNA 1: CACCCGUGCAAAAUUGCAGGGGUCUAAAACCUUCUCCAAAUUGUUUCAUCCU
RNA 2: GGGAAUGGAUCCACAUCUACGAAUUCAAUAGGAUGAAACAAUUUGGAGAAGAUUAGAUCGGAAGAGCACACGU
B8: target 2 MT 5'PFS AGA 3'PFS UUC (mixed)
RNA 1: CACCCGUGCAAAAUUGCAGGGGUCUAAAACCUUCUCCAAAUUGUUUCAUCCU
RNA 2: GGGAAUGGAUCCACAUCUACGAAUUCAGAAGGAUGAAACAAUUUGGAGAAGUUCAGAUCGGAAGAGCACACGU
B9: target 2 MT 5'PFS GCU 3'PFS UCC (mixed)
RNA 1: CACCCGUGCAAAAUUGCAGGGGUCUAAAACCUUCUCCAAAUUGUUUCAUCCU
RNA 2: GGGAAUGGAUCCACAUCUACGAAUUCGCUAGGAUGAAACAAUUUGGAGAAGUCCAGAUCGGAAGAGCACACGU
B10: target 2 MT 5'PFS GCU 3'PFS UCG (mixed)
RNA 1: CACCCGUGCAAAAUUGCAGGGGUCUAAAACCUUCUCCAAAUUGUUUCAUCCU
RNA 2: GGGAAUGGAUCCACAUCUACGAAUUCGCUAGGAUGAAACAAUUUGGAGAAGUCGAGAUCGGAAGAGCACACGU
B11: target 2 MT 5'PFS AGU 3'PFS CUG (mixed)
RNA 1: CACCCGUGCAAAAUUGCAGGGGUCUAAAACCUUCUCCAAAUUGUUUCAUCCU
RNA 2: GGGAAUGGAUCCACAUCUACGAAUUCAGUAGGAUGAAACAAUUUGGAGAAGCUGAGAUCGGAAGAGCACACGU
B12: target 2 MT 5'PFS AAG 3'PFS AAC (mixed)
RNA 1: CACCCGUGCAAAAUUGCAGGGGUCUAAAACCUUCUCCAAAUUGUUUCAUCCU
RNA 2: GGGAAUGGAUCCACAUCUACGAAUUCAAGAGGAUGAAACAAUUUGGAGAAGAACAGAUCGGAAGAGCACACGU
B13: target 2 MT 5'PFS GAA 3'PFS UGU (mixed)
RNA 1: CACCCGUGCAAAAUUGCAGGGGUCUAAAACCUUCUCCAAAUUGUUUCAUCCU
RNA 2: GGGAAUGGAUCCACAUCUACGAAUUCGAAAGGAUGAAACAAUUUGGAGAAGUGUAGAUCGGAAGAGCACACGU
B14: target 2 MT 5'PFS AGU 3'PFS CUC (mixed)
RNA 1: CACCCGUGCAAAAUUGCAGGGGUCUAAAACCUUCUCCAAAUUGUUUCAUCCU
RNA 2: GGGAAUGGAUCCACAUCUACGAAUUCAGUAGGAUGAAACAAUUUGGAGAAGCUCAGAUCGGAAGAGCACACGU
B15: target 2 MT 5'PFS UUA 3'PFS CUC (mixed)
RNA 1: CACCCGUGCAAAAUUGCAGGGGUCUAAAACCUUCUCCAAAUUGUUUCAUCCU
RNA 2: GGGAAUGGAUCCACAUCUACGAAUUCUUAAGGAUGAAACAAUUUGGAGAAGCUCAGAUCGGAAGAGCACACGU
B16: target 2 MT 5'PFS AAU 3'PFS AUC (mixed)
RNA 1: CACCCGUGCAAAAUUGCAGGGGUCUAAAACCUUCUCCAAAUUGUUUCAUCCU
RNA 2: GGGAAUGGAUCCACAUCUACGAAUUCAAUAGGAUGAAACAAUUUGGAGAAGAUCAGAUCGGAAGAGCACACGU
B17: target 2 MT 5'PFS AAU 3'PFS AUA (mixed)
RNA 1: CACCCGUGCAAAAUUGCAGGGGUCUAAAACCUUCUCCAAAUUGUUUCAUCCU
RNA 2: GGGAAUGGAUCCACAUCUACGAAUUCAAUAGGAUGAAACAAUUUGGAGAAGAUAAGAUCGGAAGAGCACACGU
B18: target 2 MT 5'PFS GAA 3'PFS UGC (mixed)
RNA 1: CACCCGUGCAAAAUUGCAGGGGUCUAAAACCUUCUCCAAAUUGUUUCAUCCU
RNA 2: GGGAAUGGAUCCACAUCUACGAAUUCGAAAGGAUGAAACAAUUUGGAGAAGUGCAGAUCGGAAGAGCACACGU
B19: target 2 MT 5'PFS AGA 3'PFS UUU (mixed)
RNA 1: CACCCGUGCAAAAUUGCAGGGGUCUAAAACCUUCUCCAAAUUGUUUCAUCCU
RNA 2: GGGAAUGGAUCCACAUCUACGAAUUCAGAAGGAUGAAACAAUUUGGAGAAGUUUAGAUCGGAAGAGCACACGU
B20: target 2 MT 5'PFS AUU 3'PFS UUC (mixed)
RNA 1: CACCCGUGCAAAAUUGCAGGGGUCUAAAACCUUCUCCAAAUUGUUUCAUCCU
RNA 2: GGGAAUGGAUCCACAUCUACGAAUUCAUUAGGAUGAAACAAUUUGGAGAAGUUCAGAUCGGAAGAGCACACGU
B21: target 2 MT 5'PFS UUA 3'PFS CUA (mixed)
RNA 1: CACCCGUGCAAAAUUGCAGGGGUCUAAAACCUUCUCCAAAUUGUUUCAUCCU
RNA 2: GGGAAUGGAUCCACAUCUACGAAUUCUUAAGGAUGAAACAAUUUGGAGAAGCUAAGAUCGGAAGAGCACACGU
B22: target 2 MT 5'PFS CCA 3'PFS CCU (mixed)
RNA 1: CACCCGUGCAAAAUUGCAGGGGUCUAAAACCUUCUCCAAAUUGUUUCAUCCU
RNA 2: GGGAAUGGAUCCACAUCUACGAAUUCCCAAGGAUGAAACAAUUUGGAGAAGCCUAGAUCGGAAGAGCACACGU
B23: target 1 A1U,A16U (mixed)
RNA 1: CACCCGUGCAAAAAUGCAGGGGUCUAAAACUGAGCGGAUAACCUCUCUAUGG
RNA 2: GGGAAUGGAUCCACAUCUACGAAUUCGUACCAUAGUGAGGUUAUCCGCUCUCCGAGAUCGGAAGAGCACACGU
B24: target 1 U10A,G12C (mixed)
RNA 1: CACCCGUGCAAAAAUGCAGGGGUCUAAAACUGAGCGGAUAACCUCUCUAUGG
RNA 2: GGGAAUGGAUCCACAUCUACGAAUUCGUACCAUAGAGAGCUAAUCCGCUCACCGAGAUCGGAAGAGCACACGU

The binders below were run against T1, EsCas13d, nuclease-dead (assay: crRNA (strand 1, pre-loaded); Mg2+; 40 mM Tris-HCl pH 7.5, 150 mM NaCl, 6 mM MgCl2, 1 mM DTT, 0.1% Tween-20, 0.2 mg/ml BSA; 25 C; 10 min per concentration, then washed). Details: tags: His6-TwinStrep-SUMO cleaved; N-terminal SNAP kept (SNAP-Surface 488); label: 3' end held by stalled T7 RNA polymerase.
B1 showed a Kd of 17.1 ± 2.5 nM. For B2, the Kd was 11.7 ± 2.2 nM. With B3 the Kd was 6.1 ± 1 nM. For B4, the Kd was 37 ± 7 nM. Binder B5 has a Kd of 24 ± 2.7 nM. In the case of B6, the Kd is reported as 36 ± 6 nM. In the case of B7, the Kd is reported as 5.3 ± 0.6 nM. In the case of B8, the Kd is reported as 18 ± 5 nM. For B9, the Kd was 40 ± 8 nM. For B10, the Kd was 18 ± 4 nM. For B11, the Kd was 11.4 ± 1.5 nM. B12 was tested, and the Kd was 3.1 ± 1 nM. B13 showed a Kd of 18 ± 2.7 nM. For B14, the Kd was ~50 nM. For B15, the Kd was 55 ± 16 nM. B16 was tested, and the Kd was 6.3 ± 0.7 nM. With B17 the Kd was 4.5 ± 0.9 nM. B18 gave a Kd of 13.2 ± 2.6 nM. B19 showed a Kd of 13.2 ± 2.6 nM. Binder B20 has a Kd of 23 ± 5 nM. With B21 the Kd was 20.9 ± 3.3 nM. With B22 the Kd was 4.9 ± 0.6 nM. For B23, the Kd was 70 ± 13 nM. B24 gave a Kd of 8.6 ± 1 nM.
